Assay [1] addresses HA of A/swine/Netherlands/1/87 (H1N1) (influenza A virus A/swine/Netherlands/1/87 (H1N1)).
In assay [2] the target is HA of the 2009 pandemic H1N1 strains, California/4/09 and Netherlands/602/09.
In assay [3] the target is HA of human-derived H3N2 strains.
For assay [4], the target named is HA of all influenza A/H1N1 viruses tested with RpSP-D multimers and trimers.

The results in this text go back to PMC3173486.

The molecule “RpSP-D trimers (from UniProt Q9N1X4 21-378) (natural protein)” displayed an HI assay: minimal inhibitory concentration of RpSP-D trimers; not inhibited in assay [1] above 1600 ng/100 µl.

B1: recombinant human SP-D, P35247 21-375 (natural protein)
chain: AEMKTYSHRTMPSACTLVMCSSVESGLPGRDGRDGREGPRGEKGDPGLPGAAGQAGMPGQAGPVGPKGDNGSVGEPGPKGDTGPSGPPGPPGVPGPAGREGPLGKQGNIGPQGKPGPKGEAGPKGEVGAPGMQGSAGARGLAGPKGERGVPGERGVPGNTGAAGSAGAMGPQGSPGARGPPGLKGDKGIPGDKGAKGESGLPDVASLRQQVEALQGQVQHLQAAFSQYKKVELFPNGQSVGEKIFKTAGFVKPFTEAQLLCTQAGGQLASPRSAAENAALQQLVVAKNEAAFLSMTDSKTEGKFTYPTGESLVYSNWAPGEPNDDGGSEDCVEIFTNGKWNDRACGEKRLVVCEF
As for B1, the HI assay: minimal inhibitory concentration of RhSP-D; failed to inhibit in the assay with HA of most H1N1 viruses is above 7500 ng/100 µl.

B2: recombinant porcine SP-D, Q9N1X4 21-378 (natural protein)
chain: AEMKTYSQRAVANACALVMCSPMENGLPGRDGRDGREGPRGEKGDPGLPGAVGRAGMPGLAGPVGPKGDNGSTGEPGAKGDIGPCGPPGPPGIPGPAGKEGPSGQQGNIGPPGTPGPKGETGPKGEVGALGMQGSTGARGPAGLKGERGAPGERGAPGSAGAAGPAGATGPQGPSGARGPPGLKGDRGPPGERGAKGESGLPGITALRQQVETLQGQVQRLQKAFSQYKKVELFPNGRGVGEKIFKTGGFEKTFQDAQQVCTQAGGQMASPRSETENEALSQLVTAQNKAAFLSMTDIKTEGNFTYPTGEPLVYANWAPGEPNNNGGSSGAENCVEIFPNGKWNDKACGELRLVICEF
As for B2, the HI assay: average inhibitory concentration of RpSP-D in assay [2] was found to be 304 ng/100 µl. In addition, the HI assay: minimal inhibitory concentration of RpSP-D with HA of avian H3N2 viruses was 14.6 ng/100 µl; in assay [3] it was 11 ng/100 µl; with HA of swine H3N2 viruses, 51 ng/100 µl.

B3: RpSP-D trimers (natural protein)
chain: B2 chain
B3 returned an HI assay: average minimal inhibitory concentration of RpSP-D trimers in assay [4] of 602 ng/100 µl.

B4: RpSP-D multimers (natural protein)
chain: B2 chain
For B4, in assay [4], the HI assay: average minimal inhibitory concentration of RpSP-D multimers is 39.8 ng/100 µl.
